{"source": "FireProtDB (doi:10.1002/pro.164)", "proteins": {"B1": {"name": "wild type, Q6T418 (protein)", "chain": "MERKTFSFLFLLLLVLASDVAVERGEARTCMIKKEGWGKCLIDTTCAHSCKNRGYIGGNCKGMTRTCYCLVNC"}}, "details": "Vigna radiata; pH 7; 37 °C; GdnHCl; Fluorescence; Tris-HCl 10 mM; NaCl 100 mM; whole UniProt chain shown"}
{"protein": "B1", "values": [{"measurement": "denaturant midpoint (higher = more stable)", "value": 4.17, "unit": "M"}]}
